Measured values from US20250011363A1, “OPTIMIZED SHORTENED PEPTIDE THAT BINDS TO ACETYLCHOLINE RECEPTOR, AND USE THEREOF” (SKINMED CO., LTD., priority 2021, published 2025).

biological target: acetylcholine receptor; assay: SPR, AchR immobilized on CM5 chip, peptide at 10 µM

Row | Binder | Binding affinity (RU)
1 | RQQYR [5mer-101] | 55
2 | RGFYR [5mer-425] | 80
3 | RVYTR [5mer-419] | 67
4 | RWLLR [5mer-115] | 75
5 | KWIQR [5mer-399] | 62
6 | RWVTK [5mer-127] | 86
7 | KGYLK [5mer-404] | 83
8 | RVVLK [5mer-104] | 74
9 | KSYTK [5mer-405] | 68
10 | RGRSR [5mer-412] | 81
11 | RVICK [5mer-118] | 87
12 | RWRCK [5mer-400] | 70
13 | KQIRK [5mer-119] | 60
14 | KWLQK [5mer-417] | 65
15 | KVIRK [5mer-100] | 80
16 | KWICK [5mer-422] | 87
17 | RRLYK [5mer-403] | 64
18 | KVRCK [5mer-414] | 71
19 | KRQRR [5mer-114] | 82
20 | RVYLK [5mer-424] | 87
21 | KLLQR [5mer-106] | 78
22 | RWRSK [5mer-116] | 64
23 | KWIRR [5mer-123] | 53
24 | RGVLR [5mer-401] | 52

Next, values leading:

Row | Binding affinity (RU) | Binder
25 | 86 | RLRYR [5mer-402]
26 | 58 | RQIYK [5mer-407]
27 | 60 | RRQLK [5mer-423]
28 | 56 | RWLTR [5mer-413]
29 | 58 | RWICK [5mer-99]
30 | 78 | RSYQK [5mer-122]
31 | 67 | RVRQK [5mer-125]
32 | 68 | RLQCR [5mer-109]
33 | 62 | KQIYK [5mer-409]
34 | 69 | RSVYK [5mer-117]
35 | 84 | KVYLR [5mer-406]
36 | 85 | KSVLK [5mer-111]
37 | 77 | KVFLR [5mer-415]
38 | 82 | RGFSK [5mer-102]
39 | 68 | RVVYK [5mer-421]
40 | 68 | RQILK [5mer-120]
41 | 74 | KVFRK [5mer-408]

Row | Binding affinity (RU) | Binder
42 | 67 | KLYLR [5mer-416]
43 | 73 | RQVTR [5mer-121]
44 | 62 | RWFLK [5mer-103]
45 | 57 | RRVSR [5mer-426]
46 | 58 | KGFSK [5mer-124]
47 | 50 | RGQQR [5mer-105]
48 | 66 | KGRLR [5mer-411]
49 | 79 | KRLRK [5mer-113]
50 | 56 | RWVSR [5mer-107]
51 | 84 | KLFCR [5mer-420]
52 | 77 | KWQLK [5mer-108]
53 | 61 | RGVTK [5mer-126]
54 | 76 | KRRLK [5mer-110]
55 | 76 | RRFLR [5mer-410]
56 | 53 | RWRTR [5mer-418]
57 | 58 | KRYYR [5mer-112]

biological target: acetylcholine receptor; assay: SPR, peptide at 10 µM on acetylcholine receptor

Row | Binder | Binding affinity (RU)
58 | KWYCK [5mer-98] | 68
59 | RWYTK [5mer-90] | 86
60 | KVFRR [5mer-391] | 72
61 | KWRRR [5mer-389] | 57
62 | KRQLR [5mer-97] | 52
63 | KSLQR [5mer-393] | 75
64 | RGRRK [5mer-95] | 68
65 | RVRLK [5mer-92] | 62
66 | KWVYR [5mer-93] | 79
67 | RRITK [5mer-397] | 52
68 | RVLYR [5mer-96] | 55
69 | RRVQK [5mer-88] | 73

The next lines start with the values.

Row | Binding affinity (RU) | Binder
70 | 50 | RWFQR [5mer-94]
71 | 50 | RWVCK [5mer-395]
72 | 66 | KRRRK [5mer-394]
73 | 55 | RQIQK [5mer-91]
74 | 71 | KGQCR [5mer-398]
75 | 78 | KLFCK [5mer-388]
76 | 53 | KVVCR [5mer-396]
77 | 64 | KRFCR [5mer-390]
78 | 77 | KRITK [5mer-89]
79 | 87 | RSRLR [5mer-392]
